{"source": "patent US9486409B2", "about": "“Peptide nanoparticles and uses therefor” (Anterios, Inc., priority 2006, dated 2016)", "origin": "cited, not measured here", "details": "unmodified peptide, prior studies (Katayama et al.)"}
{"substance": "KTTKS (peptide that may promote extra-cellular matrix production) [unmodified pentapeptide known to promote extra-cellular matrix production]", "values": [{"measurement": "penetration of intact skin", "value": "cannot penetrate the intact skin without chemical modification"}]}
